This note sets out measurements from article PMC2806667 (Molecular microbiology, 2009).

The labels stand for the following.
T1: GST-VID (full length) (Bacillus subtilis, UniProt P37963 1-575)
T1 sequence (looked up): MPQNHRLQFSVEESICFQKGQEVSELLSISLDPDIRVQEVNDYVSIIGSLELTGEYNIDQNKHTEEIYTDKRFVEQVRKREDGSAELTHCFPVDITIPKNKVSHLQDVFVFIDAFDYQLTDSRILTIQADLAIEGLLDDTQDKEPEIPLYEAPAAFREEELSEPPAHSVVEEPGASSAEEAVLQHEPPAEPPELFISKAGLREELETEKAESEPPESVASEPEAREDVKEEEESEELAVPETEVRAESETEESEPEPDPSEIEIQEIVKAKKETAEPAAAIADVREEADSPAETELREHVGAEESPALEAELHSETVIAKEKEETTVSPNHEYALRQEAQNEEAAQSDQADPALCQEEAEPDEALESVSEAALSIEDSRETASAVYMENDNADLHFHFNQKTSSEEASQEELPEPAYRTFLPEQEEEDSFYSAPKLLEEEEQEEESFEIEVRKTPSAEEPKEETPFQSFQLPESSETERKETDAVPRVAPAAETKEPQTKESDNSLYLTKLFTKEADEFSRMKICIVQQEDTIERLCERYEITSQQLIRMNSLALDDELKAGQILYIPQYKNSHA

T2: His6-VID full length (Bacillus subtilis, UniProt P37963 1-575)
T2 sequence (looked up): T1 sequence (looked up)

B1: His6-VID(121-575) (domain or fragment, Bacillus subtilis, UniProt P37963 121-575, looked up)
chain: DSRILTIQADLAIEGLLDDTQDKEPEIPLYEAPAAFREEELSEPPAHSVVEEPGASSAEEAVLQHEPPAEPPELFISKAGLREELETEKAESEPPESVASEPEAREDVKEEEESEELAVPETEVRAESETEESEPEPDPSEIEIQEIVKAKKETAEPAAAIADVREEADSPAETELREHVGAEESPALEAELHSETVIAKEKEETTVSPNHEYALRQEAQNEEAAQSDQADPALCQEEAEPDEALESVSEAALSIEDSRETASAVYMENDNADLHFHFNQKTSSEEASQEELPEPAYRTFLPEQEEEDSFYSAPKLLEEEEQEEESFEIEVRKTPSAEEPKEETPFQSFQLPESSETERKETDAVPRVAPAAETKEPQTKESDNSLYLTKLFTKEADEFSRMKICIVQQEDTIERLCERYEITSQQLIRMNSLALDDELKAGQILYIPQYKNSHA
B2: GST-VID L201-A575 fragment (domain or fragment, Bacillus subtilis, UniProt P37963 201-575, looked up)
chain: LREELETEKAESEPPESVASEPEAREDVKEEEESEELAVPETEVRAESETEESEPEPDPSEIEIQEIVKAKKETAEPAAAIADVREEADSPAETELREHVGAEESPALEAELHSETVIAKEKEETTVSPNHEYALRQEAQNEEAAQSDQADPALCQEEAEPDEALESVSEAALSIEDSRETASAVYMENDNADLHFHFNQKTSSEEASQEELPEPAYRTFLPEQEEEDSFYSAPKLLEEEEQEEESFEIEVRKTPSAEEPKEETPFQSFQLPESSETERKETDAVPRVAPAAETKEPQTKESDNSLYLTKLFTKEADEFSRMKICIVQQEDTIERLCERYEITSQQLIRMNSLALDDELKAGQILYIPQYKNSHA
B3: His6-IVA (SpoIVA) (natural protein, Bacillus subtilis, UniProt P35149 1-492, looked up)
chain: MEKVDIFKDIAERTGGDIYLGVVGAVRTGKSTFIKKFMELVVLPNISNEADRARAQDELPQSAAGKTIMTTEPKFVPNQAMSVHVSDGLDVNIRLVDCVGYTVPGAKGYEDENGPRMINTPWYEEPIPFHEAAEIGTRKVIQEHSTIGVVITTDGTIGDIARSDYIEAEERVIEELKEVGKPFIMVINSVRPYHPETEAMRQDLSEKYDIPVLAMSVESMRESDVLSVLREALYEFPVLEVNVNLPSWVMVLKENHWLRESYQESVKETVKDIKRLRDVDRVVGQFSEFEFIESAGLAGIELGQGVAEIDLYAPDHLYDQILKEVVGVEIRGRDHLLELMQDFAHAKTEYDQVSDALKMVKQTGYGIAAPALADMSLDEPEIIRQGSRFGVRLKAVAPSIHMIKVDVESEFAPIIGTEKQSEELVRYLMQDFEDDPLSIWNSDIFGRSLSSIVREGIQAKLSLMPENARYKLKETLERIINEGSGGLIAIIL
B4: His6-VID(121-521) (domain or fragment, Bacillus subtilis, UniProt P37963 121-521, looked up)
chain: DSRILTIQADLAIEGLLDDTQDKEPEIPLYEAPAAFREEELSEPPAHSVVEEPGASSAEEAVLQHEPPAEPPELFISKAGLREELETEKAESEPPESVASEPEAREDVKEEEESEELAVPETEVRAESETEESEPEPDPSEIEIQEIVKAKKETAEPAAAIADVREEADSPAETELREHVGAEESPALEAELHSETVIAKEKEETTVSPNHEYALRQEAQNEEAAQSDQADPALCQEEAEPDEALESVSEAALSIEDSRETASAVYMENDNADLHFHFNQKTSSEEASQEELPEPAYRTFLPEQEEEDSFYSAPKLLEEEEQEEESFEIEVRKTPSAEEPKEETPFQSFQLPESSETERKETDAVPRVAPAAETKEPQTKESDNSLYLTKLFTKEADEFSR

Test [1] deals with B3. In words: far-Western, overlay or dot blot.
Test [2] has as its target B3. Nature of the test: pull-down.
A further test deals with T1, GST-VID (full length). Nature of the test: pull-down.
Another test deals with T2, His6-VID full length. Nature of the test: far-Western, overlay or dot blot.

As for B1, the binding result in the test with His6-IVA (SpoIVA) [1] is given as “binds”.

As to B2, the binding result with His6-IVA (SpoIVA) [2] is “binds”.

In the case of B3, the binding result with GST-VID (full length) and in the test with His6-VID full length was “binds” each time.

For the molecule B4, in the test with His6-IVA (SpoIVA) [1], the binding result is reported as “binds”.
